Paper doi:10.1101/2024.02.02.578563

Legend:
Test in all cases: EMSA
rGST APE1 WT = rGST APE1 WT (human, UniProt P27695 1-318)
rGST hnRNPA2B1 = rGST hnRNPA2B1 (UniProt P22626 1-353)
[1] = molecular target: rGST APE1 NdeltaN33 (APE1NΔ33) (human, UniProt P27695 34-318, del1-33)
Chain of rGST APE1 NdeltaN33 (APE1NΔ33) (P27695 34-318, stated change not applied): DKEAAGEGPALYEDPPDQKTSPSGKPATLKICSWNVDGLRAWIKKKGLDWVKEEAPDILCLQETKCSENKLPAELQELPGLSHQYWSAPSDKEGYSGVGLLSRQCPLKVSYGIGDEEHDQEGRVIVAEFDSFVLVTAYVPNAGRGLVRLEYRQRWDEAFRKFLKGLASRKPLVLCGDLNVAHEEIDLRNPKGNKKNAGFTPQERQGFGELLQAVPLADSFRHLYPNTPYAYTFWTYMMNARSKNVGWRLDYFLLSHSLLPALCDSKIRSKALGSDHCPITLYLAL

Chain of rGST APE1 WT (P27695 whole entry): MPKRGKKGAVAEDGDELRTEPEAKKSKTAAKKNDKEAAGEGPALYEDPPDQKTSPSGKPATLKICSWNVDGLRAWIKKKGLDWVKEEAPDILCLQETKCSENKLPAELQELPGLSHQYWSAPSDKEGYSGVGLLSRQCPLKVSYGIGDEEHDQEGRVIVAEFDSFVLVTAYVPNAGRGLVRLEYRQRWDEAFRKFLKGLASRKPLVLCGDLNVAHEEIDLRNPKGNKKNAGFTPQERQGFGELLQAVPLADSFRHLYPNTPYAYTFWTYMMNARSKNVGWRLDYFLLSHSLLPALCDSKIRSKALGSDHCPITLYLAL
Chain of rGST hnRNPA2B1 (P22626 whole entry): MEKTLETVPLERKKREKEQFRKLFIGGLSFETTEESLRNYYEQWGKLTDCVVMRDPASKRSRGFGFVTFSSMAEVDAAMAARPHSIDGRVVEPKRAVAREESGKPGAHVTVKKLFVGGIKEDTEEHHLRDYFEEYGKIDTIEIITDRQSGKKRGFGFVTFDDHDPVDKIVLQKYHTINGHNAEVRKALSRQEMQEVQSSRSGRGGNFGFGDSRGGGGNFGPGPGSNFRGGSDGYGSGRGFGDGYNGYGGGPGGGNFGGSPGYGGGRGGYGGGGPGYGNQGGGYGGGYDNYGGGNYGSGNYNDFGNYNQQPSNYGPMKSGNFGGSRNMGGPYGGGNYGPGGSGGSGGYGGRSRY

AAUGGAUUUUUGGAGCAGG (ssRNA) [hsa-miR-1246]
binding result (rGST APE1 WT): binds
binding result (rGST hnRNPA2B1): binds
binding result [1]: no binding

GUGUGUACGGAUUGUAGAA (ssRNA) [scrEXO-miR-1246]
binding result (rGST APE1 WT): no binding

GGGGAGGUUAGGGAGGAGGGGGGUAGGCGCC (ssRNA) [EXO-miR]
binding result (rGST APE1 WT): binds
binding result (rGST hnRNPA2B1): binds
